In publication PMC8454712 (Biochemical Journal, 2021):

Biological target: Growth factor receptor-bound protein 2 (Grb2), HepG2 cells (human (endogenous in HepG2), UniProt P62993 1-217)
Assay: co-IP

Sequence of Growth factor receptor-bound protein 2 (Grb2), HepG2 cells (P62993 whole entry): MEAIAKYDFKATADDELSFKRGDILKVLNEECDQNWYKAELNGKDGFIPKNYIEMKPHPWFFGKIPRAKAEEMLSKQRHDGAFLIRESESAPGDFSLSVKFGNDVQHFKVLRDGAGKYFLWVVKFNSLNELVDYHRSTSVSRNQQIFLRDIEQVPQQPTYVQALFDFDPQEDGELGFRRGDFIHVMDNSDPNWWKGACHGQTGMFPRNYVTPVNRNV

B1: NADPH oxidase NOX4, HepG2 cells (natural protein, human (endogenous in HepG2), UniProt Q9NPH5 1-578, looked up)
chain: MAVSWRSWLANEGVKHLCLFIWLSMNVLLFWKTFLLYNQGPEYHYLHQMLGLGLCLSRASASVLNLNCSLILLPMCRTLLAYLRGSQKVPSRRTRRLLDKSRTFHITCGVTICIFSGVHVAAHLVNALNFSVNYSEDFVELNAARYRDEDPRKLLFTTVPGLTGVCMVVVLFLMITASTYAIRVSNYDIFWYTHNLFFVFYMLLTLHVSGGLLKYQTNLDTHPPGCISLNRTSSQNISLPEYFSEHFHEPFPEGFSKPAEFTQHKFVKICMEEPRFQANFPQTWLWISGPLCLYCAERLYRYIRSNKPVTIISVMSHPSDVMEIRMVKENFKARPGQYITLHCPSVSALENHPFTLTMCPTETKATFGVHLKIVGDWTERFRDLLLPPSSQDSEILPFIQSRNYPKLYIDGPFGSPFEESLNYEVSLCVAGGIGVTPFASILNTLLDDWKPYKLRRLYFIWVCRDIQSFRWFADLLCMLHNKFWQENRPDYVNIQLYLSQTDGIQKIIGEKYHALNSRLFIGRPRWKLLFDEIAKYNRGKTVGVFCCGPNSLSKTLHKLSNQNNSYGTRFEYNKESFS
Q: For B1, which “fold change of the co-precipitated interaction, T2D condition against control” value is on record?
A: The value was 1.35 fold.
